Source: the supplement of paper PMC7877785
± gives the uncertainty stated by the source.

Assay: self-splicing fitness, log relative to wild type (ln ratio); higher = more splicing; Tetrahymena group I intron in knt gene, E. coli kanamycin selection, DiMSum; sequences stand for … in CUCUCU…GGAGGGAAAAGUUAUCAGGCAUGCACCUGGUAGCUAGUCUUUAAACCAAUAGAUUGCAUCGGUUUAAAAGGCAAGACCGUCAAAUUGCGGGAAAGGGGUCAACAGCCGUUCAGUACCAAGUCUCAGGGGAAACUUUGAGAUGGCCUUGCAAAGGGUAUGGUAAUAAGCUGACGGACAUGGUCCUAACCACGCAGCCAAGUCCUAAGUCAACAGAUCUUCUGUUGAUAUGGAUGCAGUUCACAGACUAAAUGUCGGUCGGGGAAGAUGUAUUCUUCUCAUAAGAUAUAGUCGGACCUCUCCUUAAUGGGAGCUAGCGGAUGAAGUGAUGCAACACUGGAGCCGCUGGGAACUAAUUUGUAUGCGAAAGUAUAUUGAUUAGUUUUGGAGUACUCGUGGUCG
Summary of the method: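 A randomised library covering all eight P1ex-region intron nucleotides was built with the intron in the knt kanamycin-resistance gene on pET-22b(+) and held in E. coli BL21(DE3). Cells were grown overnight at 37°C or 30°C on LB agar, with or without 25 μg/mL kanamycin, plus 100 μg/mL carbenicillin, 50 μM IPTG and 0.2% rhamnose, and pooled colonies were amplicon-sequenced on an Illumina HiSeq 2500. DiMSum fitness is the error-weighted combination of wild-type-normalised replicate fold changes, kanamycin versus none.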

Row | Sequence | self-splicing fitness (ln) (30 °C) | self-splicing fitness (ln) (37 °C)
1 | GUAAAGCAAUAUUACGCGAU | -3.23 ± 0.21 | -1.42 ± 0.19
2 | AGUCAGCAAUAUUACGUUGG | -2.9 ± 0.17 | -1.83 ± 0.18
3 | UGUUAGCAAUAUUACGUUGC | -2.88 ± 0.24 | -1.62 ± 0.26
4 | CUCAAGCAAUAUUACGAUGG | -1.28 ± 0.061 | 0.0609 ± 0.08
5 | AGCCAGCAAUAUUACGACUA | -1.99 ± 0.14 | -1.5 ± 0.14
6 | CCGCAGCAAUAUUACGAUAA | -2 ± 0.19 | -1.2 ± 0.24
7 | GCUGAGCAAUAUUACGCCAA |  | -3.52 ± 0.46
8 | UCUGAGCAAUAUUACGCAGU | -2.4 ± 0.35 | -1.08 ± 0.21
9 | AGACAGCAAUAUUACGAGAC |  | -1.59 ± 0.37
10 | CGGGAGCAAUAUUACGUAAU |  | -1.95 ± 0.28
11 | GGACAGCAAUAUUACGACAA | -1.7 ± 0.21 | -0.0889 ± 0.12
12 | UGUGAGCAAUAUUACGAUUG | -2.19 ± 0.26 | -0.226 ± 0.26
13 | CUCUAGCAAUAUUACGUGCA | -2.34 ± 0.43 | 
14 | GAGAAGCAAUAUUACGCACA | -0.725 ± 0.19 | 0.27 ± 0.25
15 | UCUAAGCAAUAUUACGGUUU | -3.21 ± 0.43 | -2.56 ± 0.31
16 | AAUAAGCAAUAUUACGCGAG | -1.14 ± 0.097 | -0.557 ± 0.1
17 | CCAGAGCAAUAUUACGGGGA | -3.06 ± 0.18 | -2.61 ± 0.21
18 | CGACAGCAAUAUUACGUUAU | -3.7 ± 0.13 | -2.23 ± 0.12
19 | GACAAGCAAUAUUACGUAGC | -1.48 ± 0.069 | -0.611 ± 0.076
20 | ACUAAGCAAUAUUACGUUCC | -2.41 ± 0.23 | -1.2 ± 0.29
21 | AAACAGCAAUAUUACGGCGA | -0.923 ± 0.074 | -0.737 ± 0.085
22 | GGAGAGCAAUAUUACGCAAU | -3.02 ± 0.2 | -2.55 ± 0.31
23 | AGAGAGCAAUAUUACGGGGG | -2.78 ± 0.34 | -1.7 ± 0.36
24 | CUUUAGCAAUAUUACGUAUU | -3.07 ± 0.24 | -1.34 ± 0.21
25 | GUCUAGCAAUAUUACGUCAA | -1.4 ± 0.067 | -0.997 ± 0.085
26 | CAAGAGCAAUAUUACGCAAA | -2.46 ± 0.24 | -2.56 ± 0.41

Row | Sequence | self-splicing fitness (ln) (30 °C) | self-splicing fitness (ln) (37 °C)
27 | GCAGAGCAAUAUUACGUGUG | -2.07 ± 0.22 | -2.63 ± 0.25
28 | AUUUAGCAAUAUUACGCAAG | -2.59 ± 0.32 | -0.488 ± 0.14
29 | UGAGAGCAAUAUUACGUGCU | -2.06 ± 0.21 | 
30 | UACUAGCAAUAUUACGCGAG | -1.86 ± 0.072 | -1.59 ± 0.07
31 | AUUUAGCAAUAUUACGACCC | -1.16 ± 0.28 | -0.0521 ± 0.3
32 | CGAUAGCAAUAUUACGGUGG | -1.03 ± 0.086 | -0.748 ± 0.09
33 | CCAUAGCAAUAUUACGAUGU | -3.94 ± 0.22 | -2.71 ± 0.2
34 | GGGAAGCAAUAUUACGUAAA | -1.53 ± 0.21 | -1.56 ± 0.3
35 | ACAAAGCAAUAUUACGCGGG | -2.47 ± 0.09 | -1.01 ± 0.09
36 | CAGGAGCAAUAUUACGGACG | -0.757 ± 0.1 | -0.376 ± 0.11
37 | AUCCAGCAAUAUUACGGGGA | -1.4 ± 0.11 | -1.71 ± 0.14
38 | GAAGAGCAAUAUUACGAGAU | -3.35 ± 0.23 | -2.08 ± 0.19
39 | GGGUAGCAAUAUUACGGAUG | -1.19 ± 0.17 | -2.61 ± 0.28
40 | AACUAGCAAUAUUACGCACU | -0.218 ± 0.084 | -0.0139 ± 0.11
41 | ACGAAGCAAUAUUACGCUUG | -1.4 ± 0.086 | -0.259 ± 0.098
42 | UCCCAGCAAUAUUACGAUUG | -3.56 ± 0.32 | -3.17 ± 0.4
43 | GUCUAGCAAUAUUACGGUCC | -2.44 ± 0.15 | -1.18 ± 0.13
44 | UAUGAGCAAUAUUACGUUGU | -4.16 ± 0.24 | -2.27 ± 0.18
45 | ACCGAGCAAUAUUACGACUC | -1.44 ± 0.29 | -1.59 ± 0.22
46 | AGCGAGCAAUAUUACGCUUG | -3.61 ± 0.15 | -1.69 ± 0.15
47 | CGUAAGCAAUAUUACGCUCU | -0.698 ± 0.17 | -1.35 ± 0.2
48 | CAACAGCAAUAUUACGUCCC | -1.72 ± 0.14 | -1.46 ± 0.2
49 | UGAAAGCAAUAUUACGAUUA | -0.302 ± 0.065 | 0.211 ± 0.096
50 | ACGUAGCAAUAUUACGUCAC |  | -1.67 ± 0.4
51 | GAUCAGCAAUAUUACGGAUG | -1.19 ± 0.068 | -0.813 ± 0.076
52 | GGGGAGCAAUAUUACGUUCC |  | -2 ± 0.3

Row | Sequence | self-splicing fitness (ln) (30 °C) | self-splicing fitness (ln) (37 °C)
53 | UACGAGCAAUAUUACGAUGG | -2.85 ± 0.22 | -2.29 ± 0.24
54 | AACUAGCAAUAUUACGCAUC | -2.73 ± 0.14 | -2.28 ± 0.22
55 | GCAUAGCAAUAUUACGUUGC | -3.65 ± 0.21 | -1.72 ± 0.21
56 | GUCUAGCAAUAUUACGUGAC | -3.73 ± 0.33 | -0.257 ± 0.2
57 | CCUCAGCAAUAUUACGAGGG | -4.16 ± 0.26 | -2.73 ± 0.28
58 | UUUAAGCAAUAUUACGACGG | -0.639 ± 0.11 | 0.382 ± 0.13
59 | UUCAAGCAAUAUUACGGCAA | 0.101 ± 0.1 | 0.0563 ± 0.11
60 | CCGAAGCAAUAUUACGCGUU | -4.01 ± 0.16 | -2.4 ± 0.12
61 | UUGUAGCAAUAUUACGUGUA | -1.34 ± 0.12 | -1.12 ± 0.15
62 | GGUUAGCAAUAUUACGUCUU | -0.107 ± 0.093 | 0.227 ± 0.11
63 | UAGAAGCAAUAUUACGACCU | 0.0379 ± 0.17 | -1.35 ± 0.14
64 | AUCCAGCAAUAUUACGCGUG | -2.3 ± 0.11 | -1.72 ± 0.11
65 | AUGCAGCAAUAUUACGGCAC | -1.72 ± 0.25 | -1.29 ± 0.26
66 | UCGUAGCAAUAUUACGCACU | -2.67 ± 0.11 | -2.16 ± 0.11
67 | UUUAAGCAAUAUUACGACUG | -0.203 ± 0.097 | 0.954 ± 0.12
68 | CGGCAGCAAUAUUACGGCUG | -3.69 ± 0.47 | -2.23 ± 0.27
69 | CCUUAGCAAUAUUACGUCGA |  | -2.67 ± 0.34
70 | AAUGAGCAAUAUUACGGGAA | -2.61 ± 0.26 | -3.04 ± 0.33
71 | CGCUAGCAAUAUUACGAAGC | -1.15 ± 0.37 | 
72 | AUAGAGCAAUAUUACGCUUC | -2.52 ± 0.24 | -1.47 ± 0.25
73 | GCGCAGCAAUAUUACGCACA | -1.5 ± 0.12 | -0.062 ± 0.11
74 | GAUCAGCAAUAUUACGUAUU | -2.69 ± 0.12 | -1.38 ± 0.12
75 | UGGCAGCAAUAUUACGGAUU | -3.95 ± 0.24 | -1.88 ± 0.2
76 | UAACAGCAAUAUUACGGCUG | -2.55 ± 0.095 | -0.978 ± 0.12
77 | UAUCAGCAAUAUUACGCGCA | -0.571 ± 0.091 | 0.506 ± 0.11
78 | CGGCAGCAAUAUUACGAUAG | -0.0988 ± 0.079 | -0.126 ± 0.086
